# B1: ALDH18A1 (protein, UniProt P54886 1-795, looked up)
# Delta-1-pyrroline-5-carboxylat …: MLSQVYRCGFQPFNQHLLPWVKCTTVFRSHCIQPSVIRHVRSWSNIPFITVPLSRTHGKSFAHRSELKHAKRIVVKLGSAVVTRGDECGLALGRLASIVEQVSVLQNQGREMMLVTSGAVAFGKQRLRHEILLSQSVRQALHSGQNQLKEMAIPVLEARACAAAGQSGLMALYEAMFTQYSICAAQILVTNLDFHDEQKRRNLNGTLHELLRMNIVPIVNTNDAVVPPAEPNSDLQGVNVISVKDNDSLAARLAVEMKTDLLIVLSDVEGLFDSPPGSDDAKLIDIFYPGDQQSVTFGTKSRVGMGGMEAKVKAALWALQGGTSVVIANGTHPKVSGHVITDIVEGKKVGTFFSEVKPAGPTVEQQGEMARSGGRMLATLEPEQRAEIIHHLADLLTDQRDEILLANKKDLEEAEGRLAAPLLKRLSLSTSKLNSLAIGLRQIAASSQDSVGRVLRRTRIAKNLELEQVTVPIGVLLVIFESRPDCLPQVAALAIASGNGLLLKGGKEAAHSNRILHLLTQEALSIHGVKEAVQLVNTREEVEDLCRLDKMIDLIIPRGSSQLVRDIQKAAKGIPVMGHSEGICHMYVDSEASVDKVTRLVRDSKCEYPAACNALETLLIHRDLLRTPLFDQIIDMLRVEQVKIHAGPKFASYLTFSPSEVKSLRTEYGDLELCIEVVDNVQDAIDHIHKYGSSHTDVIVTEDENTAEFFLQHVDSACVFWNASTRFSDGYRFGLGAEVGISTSRIHARGPVGLEGLLTTKWLLRGKDHVVSDFSEHGSLKYLHENLPIPQRNTN
# B2: G3BP2 (protein, UniProt Q9UN86 2-482, looked up)
# Ras GTPase-activating …: VMEKPSPLLVGREFVRQYYTLLNKAPEYLHRFYGRNSSYVHGGVDASGKPQEAVYGQNDIHHKVLSLNFSECHTKIRHVDAHATLSDGVVVQVMGLLSNSGQPERKFMQTFVLAPEGSVPNKFYVHNDMFRYEDEVFGDSEPELDEESEDEVEEEQEERQPSPEPVQENANSGYYEAHPVTNGIEEPLEESSHEPEPEPESETKTEELKPQVEEKNLEELEEKSTTPPPAEPVSLPQEPPKAFSWASVTSKNLPPSGTVSSSGIPPHVKAPVSQPRVEAKPEVQSQPPRVREQRPRERPGFPPRGPRPGRGDMEQNDSDNRRIIRYPDSHQLFVGNLPHDIDENELKEFFMSFGNVVELRINTKGVGGKLPNFGFVVFDDSEPVQRILIAKPIMFRGEVRLNVEEKKTRAARERETRGGGDDRRDIRRNDRGPGGPRGIVGGGMMRDRDGRGPPPRGGMAQKLGSGRGTGQMEGRFTGQRR
# B3: RPN1 (protein, UniProt P04843 24-607, looked up)
# Dolichyl-diphosphooligosacchar …: ASSEAPPLINEDVKRTVDLSSHLAKVTAEVVLAHLGGGSTSRATSFLLALEPELEARLAHLGVQVKGEDEEENNLEVRETKIKGKSGRFFTVKLPVALDPGAKISVIVETVYTHVLHPYPTQITQSEKQFVVFEGNHYFYSPYPTKTQTMRVKLASRNVESYTKLGNPTRSEDLLDYGPFRDVPAYSQDTFKVHYENNSPFLTITSMTRVIEVSHWGNIAVEENVDLKHTGAVLKGPFSRYDYQRQPDSGISSIRSFKTILPAAAQDVYYRDEIGNVSTSHLLILDDSVEMEIRPRFPLFGGWKTHYIVGYNLPSYEYLYNLGDQYALKMRFVDHVFDEQVIDSLTVKIILPEGAKNIEIDSPYEISRAPDELHYTYLDTFGRPVIVAYKKNLVEQHIQDIVVHYTFNKVLMLQEPLLVVAAFYILFFTVIIYVRLDFSITKDPAAEARMKVACITEQVLTLVNKRIGLYRHFDETVNRYKQSRDISTLNSGKKSLETEHKALTSEIALLQSRLKTEGSDLCDRVSEMQKLDAQVKELVLKSAVEAERLVAGKLKKDTYIENEKLISGKRQELVTKIDHILDAL
# B4: HACD3 (protein, UniProt Q9P035 1-362, looked up)
# Very-long-chain …: MENQVLTPHVYWAQRHRELYLRVELSDVQNPAISITENVLHFKAQGHGAKGDNVYEFHLEFLDLVKPEPVYKLTQRQVNITVQKKVSQWWERLTKQEKRPLFLAPDFDRWLDESDAEMELRAKEEERLNKLRLESEGSPETLTNLRKGYLFMYNLVQFLGFSWIFVNLTVRFCILGKESFYDTFHTVADMMYFCQMLAVVETINAAIGVTTSPVLPSLIQLLGRNFILFIIFGTMEEMQNKAVVFFVFYLWSAIEIFRYSFYMLTCIDMDWKVLTWLRYTLWIPLYPLGCLAEAVSVIQSIPIFNETGRFSFTLPYPVKIKVRFSFFLQIYLIMIFLGLYINFRHLYKQRRRRYGQKKKKIH
# B5: ABCG2 (protein, UniProt Q9UNQ0 1-655, looked up)
# Broad substrate specificity …: MSSSNVEVFIPVSQGNTNGFPATASNDLKAFTEGAVLSFHNICYRVKLKSGFLPCRKPVEKEILSNINGIMKPGLNAILGPTGGGKSSLLDVLAARKDPSGLSGDVLINGAPRPANFKCNSGYVVQDDVVMGTLTVRENLQFSAALRLATTMTNHEKNERINRVIQELGLDKVADSKVGTQFIRGVSGGERKRTSIGMELITDPSILFLDEPTTGLDSSTANAVLLLLKRMSKQGRTIIFSIHQPRYSIFKLFDSLTLLASGRLMFHGPAQEALGYFESAGYHCEAYNNPADFFLDIINGDSTAVALNREEDFKATEIIEPSKQDKPLIEKLAEIYVNSSFYKETKAELHQLSGGEKKKKITVFKEISYTTSFCHQLRWVSKRSFKNLLGNPQASIAQIIVTVVLGLVIGAIYFGLKNDSTGIQNRAGVLFFLTTNQCFSSVSAVELFVVEKKLFIHEYISGYYRVSSYFLGKLLSDLLPMRMLPSIIFTCIVYFMLGLKPKADAFFVMMFTLMMVAYSASSMALAIAAGQSVVSVATLLMTICFVFMMIFSGLLVNLTTIASWLSWLQYFSIPRYGFTALQHNEFLGQNFCPGLNATGNNPCNYATCTGEEYLVKQGIDLSPWGLWKNHVALACMIVIFLTIAYLKLLFLKKYS
# B6: ZC3HAV1 (protein, UniProt Q7Z2W4 2-902, looked up)
# Zinc finger CCCH-type …: ADPEVCCFITKILCAHGGRMALDALLQEIALSEPQLCEVLQVAGPDRFVVLETGGEAGITRSVVATTRARVCRRKYCQRPCDNLHLCKLNLLGRCNYSQSERNLCKYSHEVLSEENFKVLKNHELSGLNKEELAVLLLQSDPFFMPEICKSYKGEGRQQICNQQPPCSRLHICDHFTRGNCRFPNCLRSHNLMDRKVLAIMREHGLNPDVVQNIQDICNSKHMQKNPPGPRAPSSHRRNMAYRARSKSRDRFFQGSQEFLASASASAERSCTPSPDQISHRASLEDAPVDDLTRKFTYLGSQDRARPPSGSSKATDLGGTSQAGTSQRFLENGSQEDLLHGNPGSTYLASNSTSAPNWKSLTSWTNDQGARRKTVFSPTLPAARSSLGSLQTPEAVTTRKGTGLLSSDYRIINGKSGTQDIQPGPLFNNNADGVATDITSTRSLNYKSTSSGHREISSPRIQDAGPASRDVQATGRIADDADPRVALVNDSLSDVTSTTSSRVDDHDSEEICLDHLCKGCPLNGSCSKVHFHLPYRWQMLIGKTWTDFEHMETIEKGYCNPGIHLCSVGSYTINFRVMSCDSFPIRRLSTPSSVTKPANSVFTTKWIWYWKNESGTWIQYGEEKDKRKNSNVDSSYLESLYQSCPRGVVPFQAGSRNYELSFQGMIQTNIASKTQKDVIRRPTFVPQWYVQQMKRGPDHQPAKTSSVSLTATFRPQEDFCFLSSKKYKLSEIHHLHPEYVRVSEHFKASMKNFKIEKIKKIENSELLDKFTWKKSQMKEEGKLLFYATSRAYVESICSNNFDSFLHETHENKYGKGIYFAKDAIYSHKNCPYDAKNVVMFVAQVLVGKFTEGNITYTSPPPQFDSCVDTRSNPSVFVIFQKDQVYPQYVIEYTEDKACVIS
# B7: YTHDF2 (protein, UniProt Q9Y5A9 2-579, looked up)
# YTH domain-containing family …: SASSLLEQRPKGQGNKVQNGSVHQKDGLNDDDFEPYLSPQARPNNAYTAMSDSYLPSYYSPSIGFSYSLGEAAWSTGGDTAMPYLTSYGQLSNGEPHFLPDAMFGQPGALGSTPFLGQHGFNFFPSGIDFSAWGNNSSQGQSTQSSGYSSNYAYAPSSLGGAMIDGQSAFANETLNKAPGMNTIDQGMAALKLGSTEVASNVPKVVGSAVGSGSITSNIVASNSLPPATIAPPKPASWADIASKPAKQQPKLKTKNGIAGSSLPPPPIKHNMDIGTWDNKGPVAKAPSQALVQNIGQPTQGSPQPVGQQANNSPPVAQASVGQQTQPLPPPPPQPAQLSVQQQAAQPTRWVAPRNRGSGFGHNGVDGNGVGQSQAGSGSTPSEPHPVLEKLRSINNYNPKDFDWNLKHGRVFIIKSYSEDDIHRSIKYNIWCSTEHGNKRLDAAYRSMNGKGPVYLLFSVNGSGHFCGVAEMKSAVDYNTCAGVWSQDKWKGRFDVRWIFVKDVPNSQLRHIRLENNENKPVTNSRDTQEVPLEKAKQVLKIIASYKHTTSIFDDFSHYEKRQEEEESVKKERQGRGK
# B8: MGST1 (protein, UniProt P10620 1-155, looked up)
# Microsomal glutathione …: MVDLTQVMDDEVFMAFASYATIILSKMMLMSTATAFYRLTRKVFANPEDCVAFGKGENAKKYLRTDDRVERVRRAHLNDLENIIPFLGIGLLYSLSGPDPSTAILHFRLFVGARIYHTIAYLTPLPQPNRALSFFVGYGVTLSMAYRLLKSKLYL
# B9: SLC25A3 (protein, UniProt Q00325 50-362, looked up)
# Solute carrier family 25 …: AVEEQYSCDYGSGRFFILCGLGGIISCGTTHTALVPLDLVKCRMQVDPQKYKGIFNGFSVTLKEDGVRGLAKGWAPTFLGYSMQGLCKFGFYEVFKVLYSNMLGEENTYLWRTSLYLAASASAEFFADIALAPMEAAKVRIQTQPGYANTLRDAAPKMYKEEGLKAFYKGVAPLWMRQIPYTMMKFACFERTVEALYKFVVPKPRSECSKPEQLVVTFVAGYIAGVFCAIVSHPADSVVSVLNKEKGSSASLVLKRLGFKGVWKGLFARIIMIGTLTALQWFIYDSVKVYFRLPRPPPPEMPESLKKKLGLTQ
# B10: SERBP1 (protein, UniProt Q8NC51 2-408, looked up)
# SERPINE1 mRNA-binding protein …: PGHLQEGFGCVVTNRFDQLFDDESDPFEVLKAAENKKKEAGGGGVGGPGAKSAAQAAAQTNSNAAGKQLRKESQKDRKNPLPPSVGVVDKKEETQPPVALKKEGIRRVGRRPDQQLQGEGKIIDRRPERRPPRERRFEKPLEEKGEGGEFSVDRPIIDRPIRGRGGLGRGRGGRGRGMGRGDGFDSRGKREFDRHSGSDRSSFSHYSGLKHEDKRGGSGSHNWGTVKDELTESPKYIQKQISYNYSDLDQSNVTEETPEGEEHHPVADTENKENEVEEVKEEGPKEMTLDEWKAIQNKDRAKVEFNIRKPNEGADGQWKKGFVLHKSKSEEAHAEDSVMDHHFRKPANDITSQLEINFGDLGRPGRGGRGGRGGRGRGGRPNRGSRTDKSSASAPDVDDPEAFPALA
# System: GFP-14-3-3β and its binding proteins
# Experiment: GFP-14-3-3β co-IP with LC-MS/MS label-free quantification, untreated versus PP1c-treated
# Parameters: species or system human
# Settings: PP1 vs untreated; label-free quantification
row,Molecule,"Difference (log2), PP1 vs untreated"
1,B1,0.9496 log2
2,B2,0.991 log2
3,B3,1.002 log2
4,B4,0.9389 log2
5,B5,0.9597 log2
6,B6,1.025 log2
7,B7,1.045 log2
8,B8,1.003 log2
9,B9,1.025 log2
10,B10,1.03 log2

# System: GFP-14-3-3β
# Experiment: GFP-14-3-3β co-IP with LC-MS/MS, untreated GFP-14-3-3β versus GFP control (14-3-3 interactome)
# Assay type: binding, human
# Settings: untreated vs GFP; label-free quantification
row,Molecule,"Difference (log2), untreated vs GFP"
1,B1,-0.8261 log2
2,B2,0.002451 log2
3,B3,0.04558 log2
4,B4,-0.3489 log2
5,B5,-0.7786 log2
6,B6,-0.3627 log2
7,B7,1.029 log2
8,B8,1.613 log2
9,B9,1.257 log2
10,B10,-0.2637 log2

# Source: PMC7367873, “Dissecting the sequence determinants for dephosphorylation by the catalytic subunits of phosphatases PP1 and PP2A” (Nature Communications, 2020)
